Test [1] deals with T1, human FcγRIIb constitutively expressed on MDCK cells (human, UniProt P31994 43-310).
T1 sequence (looked up): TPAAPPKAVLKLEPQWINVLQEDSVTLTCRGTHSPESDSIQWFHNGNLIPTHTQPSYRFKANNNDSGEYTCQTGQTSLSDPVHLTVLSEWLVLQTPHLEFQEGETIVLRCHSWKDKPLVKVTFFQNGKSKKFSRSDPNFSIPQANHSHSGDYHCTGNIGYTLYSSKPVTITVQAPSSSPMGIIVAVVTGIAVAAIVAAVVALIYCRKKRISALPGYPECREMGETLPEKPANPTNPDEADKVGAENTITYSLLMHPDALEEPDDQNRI
The test can be described thus: cell-based or functional assay.

Test [2] deals with T2, cynomolgus monkey FcγRIIa1 extracellular domain with C-terminal His-tag (cynomolgus monkey).
T2 construct: also called cyno FcgRIIa1; cynoFcγRIIa1
T2 chain: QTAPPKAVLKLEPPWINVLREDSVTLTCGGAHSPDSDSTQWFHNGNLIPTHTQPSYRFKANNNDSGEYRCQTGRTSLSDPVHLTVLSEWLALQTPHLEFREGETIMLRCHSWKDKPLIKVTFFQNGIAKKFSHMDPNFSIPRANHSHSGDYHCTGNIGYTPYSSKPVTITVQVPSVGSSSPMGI
The test can be described thus: SPR (BIACORE), antibody captured, FcgR analyte. As for the experimental part: (§1) The kinetic analysis of interactions between these antibodies and FcγR was carried out using BIACORE® T200 or BIACORE® 4000 (GE Healthcare). HBS-EP+ (GE Healthcare) was used as the running buffer, and the measurement temperature was set to 25° C. A chip produced by immobilizing Protein A. Protein A/G or mouse anti-human IgG kappa light chain (BD Biosciences) onto a Series S Sensor Chip CM4 or CM5 (GE Healthcare) by the amine-coupling method was used. […] After the measurement, the antibody captured on the chip was washed off by allowing reaction with 10 mM glycine-HCl, pH1.5 and 25 mM NaOH so that the chip was regenerated and used repeatedly. The sensorgrams obtained as measurement results were analyzed by the 1:1 Langmuir binding model using the BIACORE® Evaluation Software to calculate the binding rate constant ka (L/mol/s) and dissociation rate constant kd (l/s), and the dissociation constant KD (mol/L) was calculated from these values. […] Regarding such interactions, KD values were calculated using the following 1:1 binding model described in BIACORE® T100 Software Handbook BR1006-48 Edition AE.
(§2) The behavior of interacting molecules according to the 1:1 binding model on BIACORE® can be described by Equation 1: Req=C·R max/(KD+C)+RI, wherein, Req is a plot of steady-state binding levels to analyte concentration. C is concentration, RI is bulk refractive index contribution in the sample, and Rmax is analyte binding capacity of the surface. When this equation is rearranged, KD can be expressed as Equation 2: KD=C·Rmax/(Req−RI)−C. KD can be calculated by substituting the values of Rmax, RI, and C into Equation 1 or Equation 2. From the current measurement conditions, RI=0, C=2 μmol/L can be used.
A general note: SPR reads the build-up and loss of mass on a sensor chip optically.

In test [3] the target is T3, cynomolgus monkey FcγRIIa2 extracellular domain with C-terminal His-tag (cynomolgus monkey).
T3 construct: also called cyno FcgRIIa2; cynoFcγRIIa2
T3 chain: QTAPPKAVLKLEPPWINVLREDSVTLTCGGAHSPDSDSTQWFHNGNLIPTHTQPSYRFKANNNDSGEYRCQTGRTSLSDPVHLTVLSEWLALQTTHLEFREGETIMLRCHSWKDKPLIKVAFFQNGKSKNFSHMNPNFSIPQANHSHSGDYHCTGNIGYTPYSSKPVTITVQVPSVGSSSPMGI
The test is described as follows: SPR (BIACORE), antibody captured, FcgR analyte. As for the experimental part: as §1, §2

Test [4] addresses T4, cynomolgus monkey FcγRIIb extracellular domain with C-terminal His-tag (cynomolgus monkey).
T4 construct: also called cyno FcgRIIb; cynoFcγRIIb
T4 chain: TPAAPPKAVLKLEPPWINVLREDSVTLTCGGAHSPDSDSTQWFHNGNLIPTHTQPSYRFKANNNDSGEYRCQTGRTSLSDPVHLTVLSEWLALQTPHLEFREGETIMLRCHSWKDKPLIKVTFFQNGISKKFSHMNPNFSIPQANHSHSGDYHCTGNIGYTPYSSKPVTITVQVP
The test can be described thus: SPR (BIACORE), antibody captured, FcgR analyte. As for the experimental part: as §1, §2

For test [5], the target named is T5, cynomolgus monkey FcγRIIIaS extracellular domain with C-terminal His-tag (cynomolgus monkey, UniProt Q8SPW2 21-206 at identity 1.00)).
T5 construct: also called cyno FcgRIIIaS; cynoFcγRIIIaS
T5 chain: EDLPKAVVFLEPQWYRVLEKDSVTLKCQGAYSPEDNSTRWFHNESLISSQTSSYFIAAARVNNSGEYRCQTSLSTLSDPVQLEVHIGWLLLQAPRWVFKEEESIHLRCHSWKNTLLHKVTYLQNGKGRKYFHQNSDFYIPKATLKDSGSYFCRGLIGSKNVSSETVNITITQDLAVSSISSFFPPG
The test is described as follows: SPR (BIACORE), antibody captured, FcgR analyte. The procedure: as §1, §2

The target of test [6] is T6, human FcγRIIaH extracellular domain with C-terminal His-tag (human, UniProt P12318 34-217).
T6 construct: also called human FcgRIIaH; FcγRIIa (type H)
T6 sequence: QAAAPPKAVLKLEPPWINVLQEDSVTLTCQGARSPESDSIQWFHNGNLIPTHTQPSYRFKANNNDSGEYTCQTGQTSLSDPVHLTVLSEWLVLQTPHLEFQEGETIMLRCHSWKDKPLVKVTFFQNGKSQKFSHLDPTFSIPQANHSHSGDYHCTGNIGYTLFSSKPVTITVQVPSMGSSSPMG
The test can be described thus: SPR (BIACORE), antibody captured, FcgR analyte. The procedure: as §1, §2

In test [7] the target is T7, human FcγRIIaR extracellular domain with C-terminal His-tag (human, UniProt P12318 34-217).
T7 construct: also called human FcgRIIaR; FcγRIIa (type R)
T7 chain: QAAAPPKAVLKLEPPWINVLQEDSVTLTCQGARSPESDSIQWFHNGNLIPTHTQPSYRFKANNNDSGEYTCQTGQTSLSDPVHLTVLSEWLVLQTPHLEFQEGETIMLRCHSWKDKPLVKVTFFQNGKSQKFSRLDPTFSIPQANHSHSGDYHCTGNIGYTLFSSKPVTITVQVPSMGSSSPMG
The test is described as follows: SPR (BIACORE), antibody captured, FcgR analyte. As for the experimental part: as §1, §2

Test [8] addresses T8, human FcγRIIIaV extracellular domain with C-terminal His-tag (human, UniProt P08637 17-208).
T8 construct: also called human FcgRIIIaV
The test can be described thus: SPR (BIACORE), antibody captured, FcgR analyte. The procedure: as §1, §2

The results in this text go back to patent publication US20200317768A1 (published 2020).

T8 sequence (P08637 17-208 F176V): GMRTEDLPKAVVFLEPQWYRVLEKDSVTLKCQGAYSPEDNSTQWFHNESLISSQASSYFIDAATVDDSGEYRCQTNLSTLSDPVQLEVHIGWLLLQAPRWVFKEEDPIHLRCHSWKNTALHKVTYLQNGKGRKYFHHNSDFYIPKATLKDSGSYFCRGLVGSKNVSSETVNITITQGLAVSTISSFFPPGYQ

B1: MS1032LO06-SG1 (M103205H795-SG1/M103202L889-SK1) (antibody, human IgG1, kappa)
heavy: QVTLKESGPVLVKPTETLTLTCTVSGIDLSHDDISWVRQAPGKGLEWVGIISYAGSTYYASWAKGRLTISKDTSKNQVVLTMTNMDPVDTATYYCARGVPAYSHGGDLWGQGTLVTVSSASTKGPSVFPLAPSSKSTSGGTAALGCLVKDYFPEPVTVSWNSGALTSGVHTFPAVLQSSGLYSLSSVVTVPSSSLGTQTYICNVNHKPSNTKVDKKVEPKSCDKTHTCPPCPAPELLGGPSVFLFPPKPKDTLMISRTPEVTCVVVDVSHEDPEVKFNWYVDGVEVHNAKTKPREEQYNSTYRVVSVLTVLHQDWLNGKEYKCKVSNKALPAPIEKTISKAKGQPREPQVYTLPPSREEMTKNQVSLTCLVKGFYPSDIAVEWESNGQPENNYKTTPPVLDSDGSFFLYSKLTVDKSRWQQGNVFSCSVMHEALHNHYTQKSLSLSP
light: DIVMTQSPATLSLSPGERATLSCTSSQSVYHANWLSWFQQKPGQPPKLLIYWASTLAYGVPSRFSGSGSGTDFTLTISSLQPEDAATYYCAGGYGGGRYAFGQGTKVEIKRTVAAPSVFIFPPSDEQLKSGTASVVCLLNNFYPREAKVQWKVDNALQSGNSQESVTEQDSKDSTYSLSSTLTLSKADYEKHKVYACEVTHQGLSSPVTKSFNRGEC
notes: Anti-latent myostatin antibody
For B1, the celluar uptake in test [1] is 1 relative to SG1 (=1.00).

B2: MS_M103205H795-SG1/M103202L889-SK1 (antibody, human IgG1, kappa)
heavy: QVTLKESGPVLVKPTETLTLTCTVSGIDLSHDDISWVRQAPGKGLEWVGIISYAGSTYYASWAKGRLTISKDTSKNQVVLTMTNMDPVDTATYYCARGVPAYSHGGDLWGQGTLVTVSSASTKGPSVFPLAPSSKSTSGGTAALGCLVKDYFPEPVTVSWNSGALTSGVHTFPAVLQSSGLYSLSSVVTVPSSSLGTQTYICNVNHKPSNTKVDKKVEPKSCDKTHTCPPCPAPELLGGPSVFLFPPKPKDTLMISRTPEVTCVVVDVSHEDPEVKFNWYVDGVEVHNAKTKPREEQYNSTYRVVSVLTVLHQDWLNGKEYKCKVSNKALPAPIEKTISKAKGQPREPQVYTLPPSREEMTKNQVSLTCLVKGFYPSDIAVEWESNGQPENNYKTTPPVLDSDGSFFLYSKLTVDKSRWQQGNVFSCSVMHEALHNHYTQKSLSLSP
light: DIVMTQSPATLSLSPGERATLSCTSSQSVYHANWLSWFQQKPGQPPKLLIYWASTLAYGVPSRFSGSGSGTDFTLTISSLQPEDAATYYCAGGYGGGRYAFGQGTKVEIKRTVAAPSVFIFPPSDEQLKSGTASVVCLLNNFYPREAKVQWKVDNALQSGNSQESVTEQDSKDSTYSLSSTLTLSKADYEKHKVYACEVTHQGLSSPVTKSFNRGEC
notes: Parent antibody of the Fc variants; also called MS1032LO06-SG1
The term Kd denotes the concentration at which binding is half-saturated. As to B2, the dissociation constant Kd was determined as 3200 nM in test [2]; 5100 nM in test [3]; 1800 nM in test [4]; 360 nM in test [5]; 690 nM in test [6]; 1100 nM in test [7]. The same molecule displayed a Kd in test [8] of 810 nM.
